Experimental data reported in patent US20110143963A1.

Experiments:
[1] = target: SUMO-ARVCF fusion protein (yeast); assay: SPR, equilibrium mode, target peptide fused to yeast SUMO
[2] = target: ARVCF peptide PQPVDSWV-COOH (eight-residue motif corresponding to the ARVCF C-terminus); assay: IC50 for the ARVCF peptide; method not stated with the table
[3] = target: δ-catenin peptide PASPDSWV-COOH; assay: SPR (BIAcore)
[4] = target: ARVCF peptide PQPVDSWV-COOH (eight-residue motif corresponding to the ARVCF C-terminus); assay: SPR (BIAcore)
[5] = target: δ-catenin peptide PASPDSWV-COOH; assay: SPR (BIAcore), column δ-Catenin; number at the right of panel F (off rate per paragraph 112), unit from the column head of Table 4
[6] = target: δ-catenin peptide PASPDSWV-COOH; assay: SPR
[7] = target: ARVCF peptide PQPVDSWV-COOH (eight-residue motif corresponding to the ARVCF C-terminus); assay: SPR
[8] = target: δ-catenin peptide PASPDSWV-COOH; assay: SPR (BIAcore), column δ-Catenin; number at the left of panel F (on rate per paragraph 112), unit from the column head of Table 4
[9] = target: δ-catenin peptide PASPDSWV-COOH; assay: SPR, ratio of Kd
[10] = target: ARVCF peptide PQPVDSWV-COOH (eight-residue motif corresponding to the ARVCF C-terminus); assay: SPR, ratio of Kd
[11] = target: SH2 domain of human Grb2 (human), P62993; assay: panel E, competition phage ELISA: wtSH2 (Grb2-SH2) phages incubated with free pY1208 peptide (0 to about 2200 nM), phages not bound to the free peptide captured and detected
Chain of SH2 domain of human Grb2 (human), P62993 (P62993 56-153 limits assumed): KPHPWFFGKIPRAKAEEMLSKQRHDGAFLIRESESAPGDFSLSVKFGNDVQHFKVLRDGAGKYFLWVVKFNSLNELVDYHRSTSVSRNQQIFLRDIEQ

[12] = target: δ-catenin peptide PASPDSWV-COOH; assay: SPR (BIAcore); SPR, soluble ePDZ-b; only a lower bound on Kd (very weak binding); same conditions as the other rows
[13] = target: δ-catenin peptide PASPDSWV-COOH; assay: SPR, ratio of Kd; ratio Kd(δ-catenin)/Kd(ARVCF) derived from the same SPR values, not a separate measurement
[14] = target: ARVCF peptide with Ala substitution at position -4; assay: SPR, Ala scan of the ARVCF peptide

IC50 [2] [nM] | Kd [4] [nM] | Kd [7] [nM] | koff [7] [s⁻¹] | kon [7] [M⁻¹ s⁻¹] | Specificity Index (Kd for δ-catenin / Kd for ARVCF) [9] [fold] | Affinity Enhancement (Kd of cpPDZFN for ARVCF / Kd of the clamp) [10] [fold] | Binder | other results
40 | 56 | 56 | 0.015 | 290000 | 8 | 520 | enhanced PDZ-a (designed binder) MKHHHHHHHHHHSSDYKDDDDKGENLYFQGSPELGFSISGGVGGRGNPFRPDDDGIFVTRVQPEGPASKLLQPGDKIIQANGYSFINIEHGQAVSLLKTFQNTVELIIVREVGNGAKQEIRVRVEKDGGSGGVSSVPTNLEVVAATPTSLLISWDASYYGVSYYRITYGETGGNSPVQEFTVPYSSSTATISGLKPGVDYTITVYAYSDYYGSHHYSPISINYRT | Kd [3]: 430 nM; koff [5]: 0.11 s⁻¹; Kd [6]: 429 nM; kon [8]: 250000 M⁻¹ s⁻¹
59 | 56 | 56 | 0.011 | 190000 | – | 520 | enhanced PDZ-b (designed binder) MKHHHHHHHHHHSSDYKDDDDKGENLYFQGSPELGFSISGGVGGRGNPFRPDDDGIFVTRVQPEGPASKLLQPGDKIIQANGYSFINIEHGQAVSLLKTFQNTVELIIVREVGNGAKQEIRVRVEKDGGSGGVSSVPTNLEVVAATPTSLLISWDAYYDSHVSYYRITYGETGGNSPVQEFTVPGSKSTATISGLKPGVDYTITVYAHYNYHYYSSPISINYRT | Kd [12]: > 10000 nM; Specificity Index (Kd for δ-catenin / Kd for ARVCF) [13]: > 178 fold

Continued, binder first:

Binder | IC50 [2] [nM] | Kd [4] [nM] | Kd [7] [nM] | koff [7] [s⁻¹] | kon [7] [M⁻¹ s⁻¹] | Specificity Index (Kd for δ-catenin / Kd for ARVCF) [9] [fold] | Affinity Enhancement (Kd of cpPDZFN for ARVCF / Kd of the clamp) [10] [fold] | other results
circularly permutated PDZ domain (designed binder) PELGFSISGGVGGRGNPFRPDDDGIFVTRVQPEGPASKLLQPGDKIIQANGYSFINIEHGQAVSLLKTFQNTVELIIVREVGNGAKQEIRVRVEKD | – | – | – | – | – | – | – | Kd [1]: 11000 nM
NEPLYLNTFANTC (modifications not checked) [peptide corresponding to residues 1204-1216 of ErbB4 receptor (pY1208)] | – | – | – | – | – | – | – | IC50 [11]: 120 nM
ePDZ-b1 (designed binder) MKHHHHHHHHHHSSDYKDDDDKGENLYFQGSPELGFSISGGVGGRGNPFRPDDDGIFVTRVQPEGPASKLLQPGDKIIQANGYSFINIEHGQAVSLLKTFQNTVELIIVREVGNGAKQEIRVRVEKDGGSGGVSSVPTNLEVVAATPTSLLISWDAYRELPVSYYRITYGETGGNSPVQEFTVPGSKSTATISGLKPGVDYTITVYAHYNYHYYSSPISINYRT | – | – | 5 | < 0.00037 | 73000 | > 2000 | 4960 | fold reduction in affinity against the wild-type ARVCF peptide [14]: > 200 fold
